{"source": "patent US20190256588A1", "about": "(BEIJING HANMI PHARM, published 2019)", "binders": {"B1": {"name": "anti-human IL-17A chimeric monoclonal antibody (antibody, human IgG1, kappa, V domains shown)", "VH": "DVQVQESGPGLVKPSQSLSLTCTVTGNSITSYYAWNWIRQFPGNKLEWMGYITYSGTTSYNPSLKSRISITRDTSKNQFFLQLNSVTTEDTATYYCAREEYDDIYAVDYWGQGTSVTVSS", "VL": "IIVMTQTPLSLPVSLGDQASISCRSSQSLVHSNGNTYLHWYLQKPGQSPKLLIYKVYNRFSGVPDRFSGSGSGTDFTLKISRVEAEDLGVYFCSQSTHFPTFGGGTKLEIKR", "notes": "expressed in 293F cells; also called Anti-human IL-17A Chimeric Antibody; chimeric anti-human IL-17A monoclonal antibody"}}, "key": {"recombinant human IL-17E": {"biological_target": "T1, recombinant human IL-17E (human, UniProt Q9H293 33-177)", "T1 sequence (looked up)": "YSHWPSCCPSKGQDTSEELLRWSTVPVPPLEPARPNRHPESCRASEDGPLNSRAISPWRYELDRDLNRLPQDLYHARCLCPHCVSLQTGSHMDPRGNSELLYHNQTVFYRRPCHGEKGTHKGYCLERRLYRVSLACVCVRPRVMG", "experiment": "ELISA, cytokine coated on plate at 1 µg/mL", "description": "(§1) Recombinant human IL-17A, IL-17B, IL-17C, IL-17D, IL-17E, IL-17F, IL-1, IL-2, IL-6, IL-8, IL-21, IL-22, IL-23, IFN-g and TNFα (purchased from Sino Biological Inc. or R&D systems) were coated on a 96-well high-absorbing ELISA plate with a carbonate buffer solution with pH 9.6, the coating concentration was 1 μg/mL, the coating amount was 100 μL per well, and the coating was carried ax 4° C. out overnight. The plate was washed five times with PBST and blocked with 300 μL/well of PBST containing 1% BSA and incubated at 25° C. for 1 hour. The plate was washed five times with PBST. […] The plate was washed five times with PBST. Then, horseradish peroxidase-labeled anti-human IgG antibody (Chemicon, Catalog Number AP309P) 1:2000 diluted in PBST containing 1% BSA was added, 100 μL was added to each well, incubated at 25° C. for 1 hour. The plate was washed five times with PBST. 100 μL/well of colorimetric substrate TMB was added and incubated at room temperature for 10 minutes. Color development was terminated by adding 100 μL/well of 1 M H₂SO₄. The absorbance at 450 nm was read on a microplate reader.\n(§2) Recombinant human IL-17A, IL-17B, IL-17C, IL-17D, IL-17E, IL-17F, IL-1, IL-2, IL-6, IL-8, IL-21, IL-22, IL-23, IFN-g and TNFα (purchased from Sino Biological Inc. or R&D systems) were coated on a 96-well high-absorbing ELISA plate with a carbonate buffer solution with pH 9.6, the coating concentration was 1 μg/mL, the coating amount was 100 μL per well, and the coating was carried at 4° C. out overnight. Washed five times with PBST. Blocked with 300 μL/well of PBST containing 1% BSA and incubated at 25° C. for 1 hour. Washed five times with PBST."}, "recombinant human IL-2": {"biological_target": "recombinant human IL-2 (human, UniProt P60568 21-153)", "sequence (P60568 21-153 limits assumed)": "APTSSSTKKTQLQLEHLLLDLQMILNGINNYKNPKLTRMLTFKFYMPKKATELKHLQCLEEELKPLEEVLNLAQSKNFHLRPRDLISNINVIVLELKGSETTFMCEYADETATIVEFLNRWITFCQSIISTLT", "experiment": "ELISA, cytokine coated on plate at 1 µg/mL", "description": "as §1, §2"}, "recombinant human IL-8": {"biological_target": "recombinant human IL-8 (human, UniProt P10145 28-99, limits assumed)", "sequence (P10145 28-99 limits assumed)": "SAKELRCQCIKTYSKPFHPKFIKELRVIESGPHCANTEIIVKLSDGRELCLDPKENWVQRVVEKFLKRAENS", "experiment": "ELISA, cytokine coated on plate at 1 µg/mL", "description": "as §1, §2"}, "recombinant human IL-22": {"biological_target": "T2, recombinant human IL-22 (human, UniProt Q9GZX6 34-179)", "T2 sequence (looked up)": "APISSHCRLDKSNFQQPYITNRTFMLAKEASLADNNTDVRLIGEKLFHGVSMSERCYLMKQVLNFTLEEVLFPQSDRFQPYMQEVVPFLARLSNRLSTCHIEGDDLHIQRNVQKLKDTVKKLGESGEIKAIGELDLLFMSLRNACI", "experiment": "ELISA, cytokine coated on plate at 1 µg/mL", "description": "as §1, §2"}, "recombinant human IL-17A [1]": {"biological_target": "T3, recombinant human IL-17A (human, UniProt Q16552 24-155)", "T3 construct": "also called IL-17A antigen", "T3 sequence (Q16552 24-155 limits assumed)": "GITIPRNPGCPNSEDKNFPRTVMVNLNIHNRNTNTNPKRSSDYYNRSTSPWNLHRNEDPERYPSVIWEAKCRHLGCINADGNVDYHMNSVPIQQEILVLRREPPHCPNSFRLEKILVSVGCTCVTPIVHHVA", "experiment": "SPR, Biacore 3000, human IL-17A coupled to CM5 chip, antibody injected", "description": "The instrument utilizes an optical surface plasmon resonance technique to detect association and dissociation between a molecule coupled on a sensor chip and an analyte. CM5 chips (GE Healthcare, BR-1000-12) were used. Brief experiment procedure was as follow: human IL-17A was dissolved in sodium acetate buffer (pH 5.0) and coupled to CM chip by injecting at a speed of 10 μL/min. 1 M ethanolamine was injected at a speed of 10 μL/min for blocking. […] 10 mM glycine solution (pH 2.0) was used for regeneration. Association rate constants and dissociation rate constants were analyzed and calculated by Biacore 3000 control software."}, "recombinant rat IL-17A": {"biological_target": "T4, recombinant rat IL-17A (rat, UniProt Q61453 18-150, limits assumed)", "T4 sequence (looked up)": "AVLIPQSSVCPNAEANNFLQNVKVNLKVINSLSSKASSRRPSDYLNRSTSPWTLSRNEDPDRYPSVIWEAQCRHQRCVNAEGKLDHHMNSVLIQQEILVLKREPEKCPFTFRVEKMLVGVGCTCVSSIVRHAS", "experiment": "ELISA, recombinant rat IL-17A coated on the plate, HRP anti-human IgG, OD450nm", "description": "(§3) Recombinant human IL-17A, monkey IL-17A, rat IL-17A and mouse IL-17A (all purchased from Sino Biological Inc.), were coated on a 96-well high-absorbing ELISA plate with a carbonate buffer solution with pH 9.6, the coating concentration was […], the coating amount was 100 μL per well, and the coating was carried out at 4° C. overnight. The plate was washed five times with PBST and blocked with 300 μL/well of PBST containing 1% BSA, and then incubated at 25° C. for 1 hour. The plate was washed five times with PBST. […] The plate was washed five times with PBST. Then, horseradish peroxidase-labeled anti-human IgG antibody (Chemicon, Catalog Number AP309P) 1:2000 diluted in PBST containing 1% BSA was added, 100 μL per well, incubated at 25° C. for 1 hour. The plate was washed five times with PBST. 100 μL/well of colorimetric substrate TMB was added and incubated at room temperature for 10 minutes. Color development was terminated by adding 100 μL/well of 1 M H₂SO₄. The absorbance at 450 nm was read on a microplate reader."}, "recombinant human IL-17A [2]": {"biological_target": "T3, recombinant human IL-17A", "experiment": "ELISA, recombinant human IL-17A coated on the plate, HRP anti-human IgG, OD450nm", "description": "as §3"}, "recombinant mouse IL-17A": {"biological_target": "T5, recombinant mouse IL-17A (mouse, UniProt Q62386 26-158, limits assumed)", "T5 sequence (looked up)": "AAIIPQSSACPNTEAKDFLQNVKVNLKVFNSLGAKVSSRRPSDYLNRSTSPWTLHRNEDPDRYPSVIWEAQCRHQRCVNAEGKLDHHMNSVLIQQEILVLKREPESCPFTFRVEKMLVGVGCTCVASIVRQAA", "experiment": "ELISA, recombinant mouse IL-17A coated on the plate, HRP anti-human IgG, OD450nm", "description": "as §3"}, "[3]": {"biological_target": "recombinant monkey IL-17A (monkey)", "experiment": "ELISA, recombinant monkey IL-17A coated on the plate, HRP anti-human IgG, OD450nm", "description": "as §3"}}}
{"binder": "B1", "values": [{"measurement": "binding result", "setting": "recombinant human IL-17E", "result": "no binding"}, {"measurement": "binding result", "setting": "recombinant human IL-2", "result": "no binding"}, {"measurement": "binding result", "setting": "recombinant human IL-8", "result": "no binding"}, {"measurement": "binding result", "setting": "recombinant human IL-22", "result": "no binding"}, {"measurement": "Kd", "setting": "recombinant human IL-17A [1]", "result": 0.03, "unit": "nM"}, {"measurement": "koff", "setting": "recombinant human IL-17A [1]", "result": "1.49e-06", "unit": "s⁻¹"}, {"measurement": "kon", "setting": "recombinant human IL-17A [1]", "result": 54100, "unit": "M⁻¹ s⁻¹"}, {"measurement": "binding result", "setting": "recombinant rat IL-17A", "result": "no binding (tested: about 20 nM)"}, {"measurement": "EC50", "setting": "recombinant human IL-17A [2]", "result": 0.07, "unit": "nM"}, {"measurement": "binding result", "setting": "recombinant mouse IL-17A", "result": "no binding (tested: about 20 nM)"}, {"measurement": "EC50", "setting": "[3]", "result": 0.09, "unit": "nM"}]}
